Assay results as given in US20130089516.
Positions count from the first letter of the chain named.

Assays:
[1] = biological target: T1, mIL-2/MMP1cs/4x linker/mIL-2Rα + 6His (UniProt P04351)
T1 sequence: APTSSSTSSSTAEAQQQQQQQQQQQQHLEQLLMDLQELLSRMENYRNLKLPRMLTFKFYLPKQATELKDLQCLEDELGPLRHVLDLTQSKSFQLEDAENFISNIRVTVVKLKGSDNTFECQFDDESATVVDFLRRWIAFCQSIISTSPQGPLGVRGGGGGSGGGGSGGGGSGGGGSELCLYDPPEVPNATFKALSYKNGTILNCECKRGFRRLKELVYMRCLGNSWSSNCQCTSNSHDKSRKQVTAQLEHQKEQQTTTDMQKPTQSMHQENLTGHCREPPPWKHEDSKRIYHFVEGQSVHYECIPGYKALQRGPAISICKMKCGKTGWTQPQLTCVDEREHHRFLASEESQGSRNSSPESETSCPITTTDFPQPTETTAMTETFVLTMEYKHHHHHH

[2] = biological target: T2, mIL-2/MMP2cs/4x linker/mIL-2Rα + 6His (UniProt P04351)
T2 sequence: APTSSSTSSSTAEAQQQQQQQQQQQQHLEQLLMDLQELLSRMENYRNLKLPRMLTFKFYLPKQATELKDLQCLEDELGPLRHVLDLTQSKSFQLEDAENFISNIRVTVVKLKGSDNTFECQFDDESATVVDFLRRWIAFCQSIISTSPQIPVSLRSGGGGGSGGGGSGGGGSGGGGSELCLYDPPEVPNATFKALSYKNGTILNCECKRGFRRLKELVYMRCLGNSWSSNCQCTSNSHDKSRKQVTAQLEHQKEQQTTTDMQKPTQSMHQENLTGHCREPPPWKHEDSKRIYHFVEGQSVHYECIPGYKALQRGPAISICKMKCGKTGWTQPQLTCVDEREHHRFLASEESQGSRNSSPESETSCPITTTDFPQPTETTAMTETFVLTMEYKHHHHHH

[3] = biological target: T3, mIL-2/MMP3-2cs/4x linker/mIL-2Rα + 6His (UniProt P04351)
T3 sequence: T2 sequence with I150V, V152L, R155Y

[4] = biological target: T4, mIL-2/MMP4-1cs/4x linker/mIL-2Rα + 6His (UniProt P04351)
T4 sequence: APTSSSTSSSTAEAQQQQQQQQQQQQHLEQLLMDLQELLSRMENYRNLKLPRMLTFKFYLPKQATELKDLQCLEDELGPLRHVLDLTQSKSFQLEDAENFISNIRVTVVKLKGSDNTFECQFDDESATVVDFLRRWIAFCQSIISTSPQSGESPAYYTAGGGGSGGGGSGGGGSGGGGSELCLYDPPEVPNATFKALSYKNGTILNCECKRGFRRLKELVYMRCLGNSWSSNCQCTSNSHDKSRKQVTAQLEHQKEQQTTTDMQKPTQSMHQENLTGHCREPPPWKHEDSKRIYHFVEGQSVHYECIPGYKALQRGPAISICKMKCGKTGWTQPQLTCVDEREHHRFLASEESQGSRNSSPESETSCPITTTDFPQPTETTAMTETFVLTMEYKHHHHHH

[5] = biological target: hIL-2/PSAcs/2x linker/scFv + 6His (UniProt P60568)
[6] = biological target: mIL-2/PSAcs/2x linker/mIL-2Rα (UniProt P04351)
[7] = biological target: mIL-2/PSAcs/4x linker/mIL-2Rα (UniProt P04351)
[8] = biological target: mouse IL-2/PSAcs/Mip-1α fusion protein (UniProt P04351)

Sequence of matrix metalloproteinase 2 (MMP2), APMA-activated (R & D Systems) (P08253 110-660): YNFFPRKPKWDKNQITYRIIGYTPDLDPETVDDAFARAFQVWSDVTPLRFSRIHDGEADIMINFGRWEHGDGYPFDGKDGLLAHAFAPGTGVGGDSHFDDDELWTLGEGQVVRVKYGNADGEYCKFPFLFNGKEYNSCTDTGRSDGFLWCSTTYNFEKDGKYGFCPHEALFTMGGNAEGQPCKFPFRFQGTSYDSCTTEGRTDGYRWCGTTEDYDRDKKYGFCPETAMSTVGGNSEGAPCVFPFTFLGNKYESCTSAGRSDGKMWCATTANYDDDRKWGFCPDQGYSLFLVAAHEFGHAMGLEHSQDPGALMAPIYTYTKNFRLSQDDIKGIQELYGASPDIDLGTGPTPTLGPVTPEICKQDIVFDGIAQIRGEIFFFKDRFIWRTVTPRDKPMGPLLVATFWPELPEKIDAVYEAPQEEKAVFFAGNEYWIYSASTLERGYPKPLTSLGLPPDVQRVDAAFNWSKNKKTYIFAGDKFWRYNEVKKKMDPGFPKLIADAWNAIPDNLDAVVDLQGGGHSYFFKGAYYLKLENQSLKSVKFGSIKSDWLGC
Sequence of hIL-2/PSAcs/2x linker/scFv + 6His (P60568 whole entry, looked up): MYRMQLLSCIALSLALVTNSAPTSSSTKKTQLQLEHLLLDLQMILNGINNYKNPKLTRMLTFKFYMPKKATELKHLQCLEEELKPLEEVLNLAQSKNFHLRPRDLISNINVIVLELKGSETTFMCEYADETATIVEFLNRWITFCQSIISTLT

matrix metalloproteinase 2 (MMP2), APMA-activated (R & D Systems)
cleavage by activated MMP2, immunoblot [1]: These cleavage sites were also capable of being cleaved using activated MMP2 and MMP9 | cleavage by activated MMP2, immunoblot [2]: These cleavage sites were also capable of being cleaved using activated MMP2 and MMP9 | cleavage by activated MMP2, immunoblot [3]: These cleavage sites were also capable of being cleaved using activated MMP2 and MMP9 | cleavage by MMP2, anti-IL-2 immunoblot [4]: the fusion protein can be cleaved by MMP2 or MMP9

matrix metalloproteinase 9 (MMP9), APMA-activated (R & D Systems)
cleavage by activated MMP9, immunoblot [1]: These cleavage sites were also capable of being cleaved using activated MMP2 and MMP9 | cleavage by activated MMP9, immunoblot [2]: These cleavage sites were also capable of being cleaved using activated MMP2 and MMP9 | cleavage by activated MMP9, immunoblot [3]: These cleavage sites were also capable of being cleaved using activated MMP2 and MMP9 | cleavage by MMP9, anti-IL-2 immunoblot [4]: the fusion protein can be cleaved by MMP2 or MMP9

prostate specific antigen (PSA), purified (Cortex Biochem)
cleavage by PSA, anti-human IL-2 immunoblot [5]: the human IL-2/PSAcs/human scFv-2 fusion protein can be cleaved by PSA | cleavage by PSA, anti-IL-2 immunoblot [6]: Immunoblot analyses revealed that the fusion proteins could be cleaved by PSA | cleavage by PSA, anti-IL-2 immunoblot [7]: Immunoblot analyses revealed that the fusion proteins could be cleaved by PSA | cleavage by PSA, anti-IL-2 immunoblot [8]: the IL-2/Mip1α fusion protein could be cleaved by PSA
